B1: KDM5C^1–839, P41229-1 D87G (protein)
chain: MEPGSDDFLPPPECPVFEPSWAEFRDPLGYIAKIRPIAEKSGICKIRPPADWQPPFAVEVDNFRFTPRIQRLNELEAQTRVKLNYLGQIAKFWEIQGSSLKIPNVERRILDLYSLSKIVVEEGGYEAICKDRRWARVAQRLNYPPGKNIGSLLRSHYERIVYPYEMYQSGANLVQCNTRPFDNEEKDKEYKPHSIPLRQSVQPSKFNSYGRRAKRLQPDPEPTEEDIEKNPELKKLQIYGAGPKMMGLGLMAKDKTLRKKDKEGPECPPTVVVKEELGGDVKVESTSPKTFLESKEELSHSPEPCTKMTMRLRRNHSNAQFIESYVCRMCSRGDEDDKLLLCDGCDDNYHIFCLLPPLPEIPKGVWRCPKCVMAECKRPPEAFGFEQATREYTLQSFGEMADSFKADYFNMPVHMVPTELVEKEFWRLVNSIEEDVTVEYGADIHSKEFGSGFPVSDSKRHLTPEEEEYATSGWNLNVMPVLEQSVLCHINADISGMKVPWLYVGMVFSAFCWHIEDHWSYSINYLHWGEPKTWYGVPSLAAEHLEEVMKKLTPELFDSQPDLLHQLVTLMNPNTLMSHGVPVVRTNQCAGEFVITFPRAYHSGFNQGYNFAEAVNFCTADWLPAGRQCIEHYRRLRRYCVFSHEELICKMAACPEKLDLNLAAAVHKEMFIMVQEERRLRKALLEKGITEAEREAFELLPDDERQCIKCKTTCFLSALACYDCPDGLVCLSHINDLCKCSSSRQYLRYRYTLDELPAMLHKLKVRAESFDTWANKVRVALEVEDGRKRSLEELRALESEARERRFPNSELLQQLKNCLSEAEACVSRALGLVSGQEAG
B2: KDM5C^1–839, P41229-1 A388P (protein)
chain: MEPGSDDFLPPPECPVFEPSWAEFRDPLGYIAKIRPIAEKSGICKIRPPADWQPPFAVEVDNFRFTPRIQRLNELEAQTRVKLNYLDQIAKFWEIQGSSLKIPNVERRILDLYSLSKIVVEEGGYEAICKDRRWARVAQRLNYPPGKNIGSLLRSHYERIVYPYEMYQSGANLVQCNTRPFDNEEKDKEYKPHSIPLRQSVQPSKFNSYGRRAKRLQPDPEPTEEDIEKNPELKKLQIYGAGPKMMGLGLMAKDKTLRKKDKEGPECPPTVVVKEELGGDVKVESTSPKTFLESKEELSHSPEPCTKMTMRLRRNHSNAQFIESYVCRMCSRGDEDDKLLLCDGCDDNYHIFCLLPPLPEIPKGVWRCPKCVMAECKRPPEAFGFEQPTREYTLQSFGEMADSFKADYFNMPVHMVPTELVEKEFWRLVNSIEEDVTVEYGADIHSKEFGSGFPVSDSKRHLTPEEEEYATSGWNLNVMPVLEQSVLCHINADISGMKVPWLYVGMVFSAFCWHIEDHWSYSINYLHWGEPKTWYGVPSLAAEHLEEVMKKLTPELFDSQPDLLHQLVTLMNPNTLMSHGVPVVRTNQCAGEFVITFPRAYHSGFNQGYNFAEAVNFCTADWLPAGRQCIEHYRRLRRYCVFSHEELICKMAACPEKLDLNLAAAVHKEMFIMVQEERRLRKALLEKGITEAEREAFELLPDDERQCIKCKTTCFLSALACYDCPDGLVCLSHINDLCKCSSSRQYLRYRYTLDELPAMLHKLKVRAESFDTWANKVRVALEVEDGRKRSLEELRALESEARERRFPNSELLQQLKNCLSEAEACVSRALGLVSGQEAG

Assays:
Assay in all cases: EMSA
[1] = biological target: H3K4me3 187 bp mononucleosome, P68431; conditions: chain shown with the change;; parent: 7.3 µM
[2] = biological target: unmodified 147 bp mononucleosome, P68431; conditions: chain shown with the change;; parent: ≥ 12.5 ± 1.2
[3] = biological target: H3K4me3 147 bp mononucleosome, P68431; conditions: chain shown with the change;; parent: 6.9 ± 0.8

| Binder | Kd [1] [nM] | Kd [2] [nM] | Kd [3] [nM] |
| --- | --- | --- | --- |
| B1 | 1300 | 1800 | 2300 |
| B2 | 1800 | 3100 | 3700 |
